Data taken from patent US11512128B2, “VEGF/DLL4 binding agents and uses thereof” (MEREO BIOPHARMA 5, INC., priority 2011, dated 2022).

B1: 219R45-MB-21R79: anti-VEGF/anti-DLL4 monovalent/bispecific antibody, heavy chains SEQ ID NO:7 and 6, light chains SEQ ID NO:8 (antibody)
heavy 1: QVQLVQSGAEVKKPGASVKVSCKASGYTFTNYWMHWVRQAPGQGLEWMGDINPSNGRTSYKEKFKRRVTLSVDKSSSTAYMELSSLRSEDTAVYFCTIHYDDKYYPLMDYWGQGTLVTVSSASTKGPSVFPLAPCSRSTSESTAALGCLVKDYFPEPVTVSWNSGALTSGVHTFPAVLQSSGLYSLSSVVTVPSSNFGTQTYTCNVDHKPSNTKVDKTVERKCCVECPPCPAPPVAGPSVFLFPPKPKDTLMISRTPEVTCVVVDVSHEDPEVQFNWYVDGVEVHNAKTKPREEQFNSTFRVVSVLTVVHQDWLNGKEYKCKVSNKGLPAPIEKTISKTKGQPREPQVYTLPPSREKMTKNQVSLTCLVKGFYPSDIAVEWESNGQPENNYKTTPPMLKSDGSFFLYSKLTVDKSRWQQGNVFSCSVMHEALHNHYTQKSLSLSPGK
heavy 2: QVQLVQSGAEVKKPGASVKISCKASGYSFTAYYIHWVKQAPGQGLEWIGYIANYNRATNYNQKFKGRVTFTTDTSTSTAYMELRSLRSDDTAVYYCARDYDYDVGMDYWGQGTLVTVSSASTKGPSVFPLAPCSRSTSESTAALGCLVKDYFPEPVTVSWNSGALTSGVHTFPAVLQSSGLYSLSSVVTVPSSNFGTQTYTCNVDHKPSNTKVDKTVERKCCVECPPCPAPPVAGPSVFLFPPKPKDTLMISRTPEVTCVVVDVSHEDPEVQFNWYVDGVEVHNAKTKPREEQFNSTFRVVSVLTVVHQDWLNGKEYKCKVSNKGLPAPIEKTISKTKGQPREPQVYTLPPSREEMTKNQVSLTCLVEGFYPSDIAVEWESNGQPENNYKTTPPMLDSDGSFFLYSELTVDKSRWQQGNVFSCSVMHEALHNHYTQKSLSLSPGK
light: DIVMTQSPDSLAVSLGERATISCRASESVDNYGISFMKWFQQKPGQPPKLLIYAASNQGSGVPDRFSGSGSGTDFTLTISSLQAEDVAVYYCQQSKEVPWTFGGGTKVEIKRTVAAPSVIFPPSDEQLKSGTASVVCLLNNFYPREAKVQWKVDNALQSGNSQESVTEQDSKDSTYSLSSTLTLSKADYEKHKVYACEVTHQGLSSPVTKSFNRGEC
modifications: 21R79 Heavy chain without predicted signal sequence; Light chain without predicted signal sequence
B2: 219R45-MB-21M18: anti-VEGF/anti-DLL4 monovalent/bispecific antibody, heavy chains SEQ ID NO:7 and 5, light chains SEQ ID NO:8 (antibody)
heavy 1: QVQLVQSGAEVKKPGASVKVSCKASGYTFTNYWMHWVRQAPGQGLEWMGDINPSNGRTSYKEKFKRRVTLSVDKSSSTAYMELSSLRSEDTAVYFCTIHYDDKYYPLMDYWGQGTLVTVSSASTKGPSVFPLAPCSRSTSESTAALGCLVKDYFPEPVTVSWNSGALTSGVHTFPAVLQSSGLYSLSSVVTVPSSNFGTQTYTCNVDHKPSNTKVDKTVERKCCVECPPCPAPPVAGPSVFLFPPKPKDTLMISRTPEVTCVVVDVSHEDPEVQFNWYVDGVEVHNAKTKPREEQFNSTFRVVSVLTVVHQDWLNGKEYKCKVSNKGLPAPIEKTISKTKGQPREPQVYTLPPSREKMTKNQVSLTCLVKGFYPSDIAVEWESNGQPENNYKTTPPMLKSDGSFFLYSKLTVDKSRWQQGNVFSCSVMHEALHNHYTQKSLSLSPGK
heavy 2: QVQLVQSGAEVKKPGASVKISCKASGYSFTAYYIHWVKQAPGQGLEWIGYISSYNGATNYNQKFKGRVTFTTDTSTSTAYMELRSLRSDDTAVYYCARDYDYDVGMDYWGQGTLVTVSSASTKGPSVFPLAPCSRSTSESTAALGCLVKDYFPEPVTVSWNSGALTSGVHTFPAVLQSSGLYSLSSVVTVPSSNFGTQTYTCNVDHKPSNTKVDKTVERKCCVECPPCPAPPVAGPSVFLFPPKPKDTLMISRTPEVTCVVVDVSHEDPEVQFNWYVDGVEVHNAKTKPREEQFNSTFRVVSVLTVVHQDWLNGKEYKCKVSNKGLPAPIEKTISKTKGQPREPQVYTLPPSREEMTKNQVSLTCLVEGFYPSDIAVEWESNGQPENNYKTTPPMLDSDGSFFLYSELTVDKSRWQQGNVFSCSVMHEALHNHYTQKSLSLSPGK
light: DIVMTQSPDSLAVSLGERATISCRASESVDNYGISFMKWFQQKPGQPPKLLIYAASNQGSGVPDRFSGSGSGTDFTLTISSLQAEDVAVYYCQQSKEVPWTFGGGTKVEIKRTVAAPSVIFPPSDEQLKSGTASVVCLLNNFYPREAKVQWKVDNALQSGNSQESVTEQDSKDSTYSLSSTLTLSKADYEKHKVYACEVTHQGLSSPVTKSFNRGEC
modifications: 21R79 Heavy chain without predicted signal sequence; 21M18 Heavy chain without predicted signal sequence; Light chain without predicted signal sequence

What was measured:
VEGF and DLL4 [1] = target: T1, VEGF and DLL4 (Homo sapiens, UniProt P15692+Q9NR61); assay: HTRF assay for simultaneous binding to human VEGF and human DLL4; settings: d2-labeled hDLL4-Fc and Europium cryptate-labeled hVEGF165
Text: FIG. 2. HTRF assay for simultaneous binding of bispecific antibodies to human VEGF and human DLL4. Results are reported in Relative Fluorescence Units (RFU), which represent the ratio of the relative fluorescence intensity at 665 nm to the relative fluorescence intensity at 620 nm. 219R45-MB-21M18 (-●-); 219R45-MB-21R79 (-▪-); 219R45 plus 21M18 (-▴-); 219R45 plus 21R79 (-□-); 219R45 (-▾-); 21M18 (-⋄-); 21R79 (-∘-); control antibody LZ-1 (-Δ-).
To characterize the binding capabilities of certain antibodies and/or antibody mixtures to both VEGF and DLL4, homogeneous time resolved fluorescence (HTRF) assays were performed. Antibodies tested were anti-VEGF/anti-DLL4 bispecific antibodies 219R45-MB-21M18 and 219R45-MB-21R79, parental antibodies 219R45 (anti-VEGF), 21M18 (anti-DLL4), 21R79 (anti-DLL4), a combination of 219R45 and 21M18, or a combination of 219R45 and 21R79. The antibodies or antibody mixtures were serially diluted 2-fold from 3000 nM to 2.9 nM in binding buffer (1× PBS, 0.1% gelatin, 0.1% Polysorbate 20, 400 mM potassium fluoride) and placed in a white 96-well plate. […] The assay plates were incubated for 2 hours to overnight and read on a SpectraMax M5e Microplate reader (Molecular Devices, Sunnyvale, Calif.) at an excitation wavelength of 314 nm.

VEGF and DLL4 [2] = target: T1, VEGF and DLL4; assay: Bispecific antibody ELISA; assay type: binding; parameters: purchased ATGEN, South Korea
Experimental: FIG. 7. Bispecific antibody ELISA. Bispecific antibodies 219R45-MB-21M18, 219R45-MB-21R79, 219R45-MB-21R75, and 219R45-MB-21R83 were diluted in blocking buffer (1× PBS, 0.1% gelatin, 0.1% Polysorbate-20, pH 7.4) containing 2 μg/ml biotin-DLL4-hFc. The antibodies were serially diluted 3-fold from 500 ng/ml to 0.008 ng/ml. The antibody samples were incubated for 2 hours in blocking buffer containing the biotin-DLL4-hFc. After incubation, the antibody samples were transferred to a VEGF-coated assay plate (100 ul/well) and incubated for 2 hours. Streptavidin-HRP was added to each well and incubated for 1 hr. TMB substrate was added to the wells with a 10 minute color development and the reaction was stopped with 2M sulfuric acid. Absorbance was read at 450-650 nm and the data analyzed using the 4-parameter fit within the Softmax Pro analysis program.
VEGF (ATGEN, South Korea) was coated onto Nunc maxisorb plates at 2 ug/ml (100 μl/well) and incubated overnight at 2-8° C. Bispecific antibodies 219R45-MB-21M18, 219R45-MB-21R79, 219R45-MB-21R75, and 219R45-MB-21R83 were diluted in blocking buffer (1× PBS, 0.1% gelatin, 0.1% Polysorbate-20, pH 7.4) containing 2 μg/ml biotin-DLL4-hFc. […] Absorbance was read at 450-650 nm and the data analyzed using the 4-parameter fit within the Softmax Pro analysis program (Molecular Devices, Sunnyvale, Calif.).

OMP-C8 colon tumor = OMP-C8 colon tumor growth in vivo; parameters: species or system NOD/SCID mice
Experimental: FIGS. 11A and 11B. Inhibition of colon tumor growth in vivo by anti-VEGF/anti-DLL4 bispecific antibodies. OMP-C8 colon tumor cells were injected subcutaneously into NOD/SCID mice. Mice were treated with control antibody (-▪-), anti-VEGF antibody bevacizumab (-▴-), or anti-VEGF/anti-DLL4 bispecific antibodies 219R45-MB-21M18 (-⋄-), 219R45-MB-21R75 (-●-), 219R45-MB-21R79 (-∘-), or 219R45-MB-21R83 (-▾-). Mice were treated with antibodies as single agents (FIG. 11A) or in combination with irinotecan (FIG. 11B). Antibodies were administered intraperitoneally at a dose of 15 mg/kg once a week and irinotecan at a dose of 7.5 mg/kg one a week. Data are shown as tumor volume (mm^3) over days post-treatment.
Single cell suspensions of OMP-C8 colon tumor xenografts (50,000 cells) were injected subcutaneously into the flanks of 6-8 week old NOD/SCID mice. Tumors were allowed to grow for 21 days until they reached an average volume of 80 mm^3. The mice were randomized (n=8 per group) and treated with anti-DLL4 antibody 21M18, anti-VEGF antibody bevacizumab, anti-VEGF/anti-DLL4 bispecific antibodies 219R45-MB-21M18, 219R45-MB-21R75, 219R45-MB-21R79, 219R45-MB-21R83, or control antibody, either alone or in combination with irinotecan. Antibodies and irinotecan were dosed weekly by injection into the intraperitoneal cavity. Bevacizumab and bispecific antibodies 219R45-MB-21M18, 219R45-MB-21R75, 219R45-MB-21R79, and 219R45-MB-21R83 were dosed at 15 mg/kg, and irinotecan was dosed at 7.5 mg/kg. Tumor growth was monitored and tumor volumes were measured with electronic calipers at the indicated time points. Data are expressed as mean±S.E.M.
Following the treatment phase, tumor sections were prepared and analyzed by hematoxylin and eosin (H&E) staining. […] This is characteristic of highly necrotic tumor tissue.

Row | Molecule | simultaneous binding to hVEGF and hDLL4 (VEGF and DLL4 [1]) | more potent than 219R45-MB-21M18 in bispecific ELISA (VEGF and DLL4 [2]) | inhibition of tumor growth in combination with irinotecan (OMP-C8 colon tumor; antibody 15 mg/kg, irinotecan 7.5 mg/kg weekly ip) | H&E staining of tumor sections after treatment (OMP-C8 colon tumor; in combination with irinotecan)
1 | B1 | able to bind both hVEGF and hDLL4 simultaneously | about 7 fold |  | 
2 | B2 | able to bind both hVEGF and hDLL4 simultaneously |  | greatest inhibition of tumor growth | dark pink staining regions providing evidence of extensive calcification
